According to patent US20250282866A1 (VIGIL NEUROSCIENCE, published 2025):
Where a chain is given by its changes, count along the chain named.

B1: V31 (antibody, V domains shown)
VH: EVQLVQSGAEVKKPGESLKISCKGSGYSFTSYWIAWVRQMPGKGLEWMGIIYPGDSETRYSPSFQGQVTISADKSISTAYLQWSSLKASDTAMYFCARQRTFYYDSSDYFDYWGQGTLVTVSS
VL: DIQMTQSPSSVSASVGDRVTITCRASQGISSWLAWYQQKPGKAPKLLIYAASSLQNGVPSRFSGSGSGTDFTLTISSLQPEDFATYFCQQADSFPRTFGQGTKLEIK
B2: V86 (antibody, V domains shown)
VH: B1 VH with T30G, I34L, E57D, Q65E, Q99S
VL: B1 VL with L54R
B3: V89 (antibody, V domains shown)
VH: B1 VH with E57D
VL: B1 VL with F94H
B4: V76 (antibody, V domains shown)
VH: B1 VH with T30G, E57D, S63E, F110S
VL: B1 VL with N56K, T69R
B5: V65 (antibody, V domains shown)
VH: B1 VH with E57D, Q99S
VL: B1 VL
B6: V87 (antibody, V domains shown)
VH: B1 VH with T30R, E57D, T58V, S63D, Q99S
VL: B1 VL with N56W
B7: V88 (antibody, V domains shown)
VH: B1 VH with T30G, E57D
VL: B1 VL with S53R, N56R, F94S
B8: V48 (antibody, V domains shown)
VH: B1 VH with T30G, E57D, T58V, Q99M
VL: B1 VL with N56T, F94L
B9: V60 (antibody, V domains shown)
VH: B1 VH with S28H, E57D, T58V, F110S
VL: B1 VL with N56R, Q89G
B10: V50 (antibody, V domains shown)
VH: B1 VH with T30G, I50V, E57D, F110L
VL: B1 VL with L54R, F94L
B11: V52 (antibody, V domains shown)
VH: B1 VH with T30E, E57D, Q99G
VL: B1 VL with N56R, S93R
B12: V74 (antibody, V domains shown)
VH: B1 VH with T30A, E57D, T58V, Q99G
VL: B1 VL with N56L
B13: V62 (antibody, V domains shown)
VH: B1 VH with T30G, E57D, S61A, D108G
VL: B1 VL with N56R, Q89G
B14: V84 (antibody, V domains shown)
VH: B1 VH with S28G, E57D, F110S
VL: B1 VL with A50G
B15: V64 (antibody, V domains shown)
VH: B1 VH with T30Q, E57D, Q99G
VL: B1 VL with Q55A, F94Y
B16: V85 (antibody, V domains shown)
VH: B1 VH with T30R, I50T, E57D, Q99S
VL: B1 VL with L54R
B17: V75 (antibody, V domains shown)
VH: B1 VH with E57D, Q99G
VL: B1 VL with N56A, F94Y
B18: V77 (antibody, V domains shown)
VH: B1 VH with E57D
VL: B1 VL with L54R
B19: V61 (antibody, V domains shown)
VH: B1 VH with T30S, E57D, S61N, Q99G
VL: B1 VL with Q55V, F94L
B20: V51 (antibody, V domains shown)
VH: B1 VH with E57D, T58V, Q99G, Y112N
VL: B1 VL with L54R
B21: V49 (antibody, V domains shown)
VH: B1 VH with T30N, I50T, E57D, Y60L, Q99S
VL: B1 VL with L54R, F94Y
B22: V53 (antibody, V domains shown)
VH: B1 VH with E57D, S63H
VL: B1 VL
B23: V63 (antibody, V domains shown)
VH: B1 VH with T30R, E57D, Q99S
VL: B1 VL with N56R, S93R
B24: V72 (antibody, V domains shown)
VH: B1 VH with A35G, E57D, Q99G
VL: B1 VL with Q55V, F94Y
B25: V73 (antibody, V domains shown)
VH: B1 VH with T30G, E57D, S63G, Q99G
VL: B1 VL with L54R, F94Y

target: T1, human TREM2 (human, UniProt Q9NZC2 19-174, limits assumed); assay: 1st screen (110 nM or 10 nM)
T1 construct: also called triggering receptor expressed on myeloid cells 2
T1 sequence: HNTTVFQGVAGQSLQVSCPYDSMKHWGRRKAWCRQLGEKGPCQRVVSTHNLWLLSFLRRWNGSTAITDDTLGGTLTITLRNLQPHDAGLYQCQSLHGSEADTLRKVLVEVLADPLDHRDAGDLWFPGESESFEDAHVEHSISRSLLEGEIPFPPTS

| Binder | Binding Signal (fold over 6E7 Parental antibody) [fold] |
| --- | --- |
| B1 | 0.61 |
| B2 | 4.8 |
| B3 | 1.33 |
| B4 | 4.57 |
| B5 | 2.05 |
| B6 | 3.84 |
| B7 | 4.92 |
| B8 | 2.42 |
| B9 | 3.26 |
| B10 | 4.1 |
| B11 | 3 |
| B12 | 3.94 |
| B13 | 2.49 |
| B14 | 1.44 |
| B15 | 5.41 |
| B16 | 5.41 |
| B17 | 4.64 |
| B18 | 1.43 |
| B19 | 5.08 |
| B20 | 2.81 |
| B21 | 6.51 |
| B22 | 1.25 |
| B23 | 3.76 |
| B24 | 3.64 |
| B25 | 5.12 |

target: T1, human TREM2; assay: 2nd screen, printed under 10 nM

| Binder | Binding Signal (fold over 6E7 Parental antibody) [fold] |
| --- | --- |
| B1 | 0.73 |

target: T1, human TREM2; assay: 2nd screen 2 nM

| Binder | Binding Signal (fold over 6E7 Parental antibody) [fold] |
| --- | --- |
| B2 | 5.17 |
| B3 | 0.94 |
| B4 | 4.34 |
| B5 | 1.29 |
| B6 | 4.86 |
| B7 | 5.57 |
| B8 | 2.3 |
| B9 | 3.35 |
| B10 | 3.39 |
| B11 | 1.78 |
| B12 | 2.54 |
| B13 | 1.87 |
| B14 | 1.45 |
| B15 | 4.88 |
| B16 | 5.41 |
| B17 | 3.74 |
| B18 | 0.83 |
| B19 | 3.63 |
| B20 | 1.83 |
| B21 | 5.02 |
| B22 | 0.66 |
| B23 | 4.91 |
| B24 | 2.5 |
| B25 | 4.17 |

target: T1, human TREM2; assay: 2nd screen 10 nM

| Binder | Binding Signal (fold over 6E7 Parental antibody) [fold] |
| --- | --- |
| B2 | 5.02 |
| B3 | 1.46 |
| B4 | 4.93 |
| B5 | 2.75 |
| B6 | 3.93 |
| B7 | 5.3 |
| B8 | 2.54 |
| B9 | 3.63 |
| B10 | 4.16 |
| B11 | 3.09 |
| B12 | 4.01 |
| B13 | 2.89 |
| B14 | 1.62 |
| B15 | 5.48 |
| B16 | 5.37 |
| B17 | 4.52 |
| B18 | 1.38 |
| B19 | 5.22 |
| B20 | 3.18 |
| B21 | 6.58 |
| B22 | 1.17 |
| B23 | 3.71 |
| B24 | 4.01 |
| B25 | 5.44 |
